Data taken from patent publication US20210002619.

Assays:
[1] = tested on: T1, Transactivation domain of FoxM1 (FoxM1 (526-748))
T1 sequence: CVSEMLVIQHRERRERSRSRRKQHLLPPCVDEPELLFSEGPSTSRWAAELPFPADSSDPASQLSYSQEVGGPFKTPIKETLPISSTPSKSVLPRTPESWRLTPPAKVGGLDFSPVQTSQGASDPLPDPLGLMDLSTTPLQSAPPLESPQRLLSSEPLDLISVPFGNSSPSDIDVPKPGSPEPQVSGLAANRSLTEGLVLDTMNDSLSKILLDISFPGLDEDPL

[2] = tested on: T2, C-terminal domain of the retinoblastoma protein (Rb (771-928))
T2 sequence: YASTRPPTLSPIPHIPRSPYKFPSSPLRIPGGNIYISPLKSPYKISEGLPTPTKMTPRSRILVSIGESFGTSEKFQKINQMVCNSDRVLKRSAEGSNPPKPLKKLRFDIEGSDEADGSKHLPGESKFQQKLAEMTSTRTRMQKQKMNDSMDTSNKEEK

[3] = tested on: Full-length histone H1
Full-length histone H1, sequence (chain, as listed by the source): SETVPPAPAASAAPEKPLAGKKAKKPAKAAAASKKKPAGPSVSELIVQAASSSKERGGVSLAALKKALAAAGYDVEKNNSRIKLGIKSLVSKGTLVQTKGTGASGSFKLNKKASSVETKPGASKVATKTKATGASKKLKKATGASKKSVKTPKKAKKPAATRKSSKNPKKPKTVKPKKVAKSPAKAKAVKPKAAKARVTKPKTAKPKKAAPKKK

Substance	phosphorylation activity (32P-ATP labeling of substrate) [1]	phosphorylation activity (32P-ATP labeling of substrate) [2]	phosphorylation activity (32P-ATP labeling of substrate) [3]
Wild-type p27-Cdk4-CycD1 trimeric complex (vi) with phosphorylated p27 (Cdk4 variant having T172E substitution)	had phosphorylation activity toward all substrates	had phosphorylation activity toward all substrates	had phosphorylation activity toward all substrates
Wild-type p27-Cdk4-CycD1 trimeric complex (v) with phosphorylated p27 (wild-type Cdk4)	had phosphorylation activity toward all substrates	had phosphorylation activity toward all substrates	had phosphorylation activity toward all substrates
